Experimental findings from paper PMC12182300, “Biochemical impact of p300-mediated acetylation of replication protein A: Implications for DNA metabolic pathway choice” (The Journal of Biological Chemistry, 2025) are described below.

The IC50 is the concentration needed to halve the response being measured. Lower therefore signals greater potency in that assay.

The target in series [1] is T1, Replication Protein A (RPA), 70 kDa subunit RPA1 (Homo sapiens, UniProt P27694).
T1 construct: Full-length human (h)RPA heterotrimer, unmodified (Um-RPA); with RPA2 and RPA3 (RPA heterotrimer)
Put plainly: RPAi titration of purified Um-RPA binding to ssDNA (gel data, Fig. S6).

Series [2] has as its target T2, Um-RPA (unmodified RPA heterotrimer) (Homo sapiens, UniProt P27694;P15927;P35244 1-616;1-270;1-121). Put plainly: BLI; KD only in Fig. 4D; higher KD than Ac-RPA; EMSA: 50 mM Tris-HCl pH 8.0, 2 mM DTT, 30 mM NaCl, 0.1 mg/ml BSA, 5% glycerol, 10 min 37 °C; FEN1/RPA flap EMSA: same with 20 mM NaCl, 20 uM EDTA; BLI: 1X HAT buffer, 31.25-250 nM RPA. The conditions noted are these: protein: recombinant; copies: 1;1;1; label: 3'-biotin (BLI); 5'-32P (EMSA); single strand.

Series [3] concerns the target T2, Um-RPA (unmodified RPA heterotrimer). Briefly: BLI; KD only in Fig. 4D; smallest fold difference to Ac-RPA; EMSA: 50 mM Tris-HCl pH 8.0, 2 mM DTT, 30 mM NaCl, 0.1 mg/ml BSA, 5% glycerol, 10 min 37 °C; FEN1/RPA flap EMSA: same with 20 mM NaCl, 20 uM EDTA; BLI: 1X HAT buffer, 31.25-250 nM RPA. Particulars: protein: recombinant; copies: 1;1;1; label: 3'-biotin (BLI); 5'-TAMRA (EMSA); single strand. On the technique in general: Biolayer interferometry detects binding as a change in optical thickness at a sensor tip.

Another series deals with RPA1 DBD-F, unmodified (Homo sapiens, UniProt P27694 1-180). Briefly: EMSA; 25-150 nM protein, 25 nM DNA; EMSA: 50 mM Tris-HCl pH 8.0, 2 mM DTT, 30 mM NaCl, 0.1 mg/ml BSA, 5% glycerol, 10 min 37 °C; FEN1/RPA flap EMSA: same with 20 mM NaCl, 20 uM EDTA; BLI: 1X HAT buffer, 31.25-250 nM RPA. Particulars: protein: recombinant; tags: C-terminal His6; label: 5'-TAMRA; single strand. A general note: A gel shift assay detects complexes by their altered migration in electrophoresis.

A further series concerns the target FEN1 (UniProt P39748 1-380). Briefly: EMSA; 50 nM FEN1, 20 uM EDTA; high-affinity binding; EMSA: 50 mM Tris-HCl pH 8.0, 2 mM DTT, 30 mM NaCl, 0.1 mg/ml BSA, 5% glycerol, 10 min 37 °C; FEN1/RPA flap EMSA: same with 20 mM NaCl, 20 uM EDTA; BLI: 1X HAT buffer, 31.25-250 nM RPA. The conditions noted are these: protein: recombinant; double flap: 20 nt 5' flap (strand 2), 1 nt 3' flap (strand 3); 1:2 1:3; 1 nt 5' overhang on strand 1.

T2 sequence (P27694 whole entry, chain 1 of 3): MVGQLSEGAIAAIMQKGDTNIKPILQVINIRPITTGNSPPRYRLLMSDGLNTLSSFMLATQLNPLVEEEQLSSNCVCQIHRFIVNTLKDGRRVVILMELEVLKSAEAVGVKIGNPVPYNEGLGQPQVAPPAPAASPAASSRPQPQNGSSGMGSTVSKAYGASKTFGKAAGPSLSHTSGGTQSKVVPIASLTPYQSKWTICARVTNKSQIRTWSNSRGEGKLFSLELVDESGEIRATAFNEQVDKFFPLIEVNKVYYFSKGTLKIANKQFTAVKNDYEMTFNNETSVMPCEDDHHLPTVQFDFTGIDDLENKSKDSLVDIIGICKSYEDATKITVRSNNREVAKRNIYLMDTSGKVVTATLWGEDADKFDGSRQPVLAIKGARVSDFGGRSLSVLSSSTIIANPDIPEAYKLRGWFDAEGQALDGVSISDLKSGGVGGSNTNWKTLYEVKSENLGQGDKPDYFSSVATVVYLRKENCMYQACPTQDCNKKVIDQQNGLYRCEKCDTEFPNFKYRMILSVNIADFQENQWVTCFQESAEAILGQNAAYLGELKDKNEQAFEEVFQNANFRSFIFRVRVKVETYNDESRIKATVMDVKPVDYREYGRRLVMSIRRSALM
T2 sequence (P15927 whole entry, chain 2 of 3): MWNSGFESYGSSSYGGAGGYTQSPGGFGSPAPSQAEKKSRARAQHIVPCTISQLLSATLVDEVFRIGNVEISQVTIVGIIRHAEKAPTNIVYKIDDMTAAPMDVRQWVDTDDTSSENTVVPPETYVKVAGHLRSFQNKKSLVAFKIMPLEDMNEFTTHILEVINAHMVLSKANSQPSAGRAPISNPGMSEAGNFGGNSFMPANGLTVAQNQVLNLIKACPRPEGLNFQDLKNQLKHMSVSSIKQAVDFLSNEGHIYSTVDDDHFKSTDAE
T2 sequence (P35244 whole entry, chain 3 of 3): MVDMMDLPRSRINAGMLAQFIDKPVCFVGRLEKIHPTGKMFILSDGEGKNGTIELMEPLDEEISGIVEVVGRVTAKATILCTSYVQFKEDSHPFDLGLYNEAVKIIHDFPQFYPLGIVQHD
T1 sequence (P27694 whole entry): as the sequence (P27694 whole entry, chain 1 of 3) above
T1 sequence (P15927 whole entry partner): as the sequence (P15927 whole entry, chain 2 of 3) above
T1 sequence (P35244 2-121 partner): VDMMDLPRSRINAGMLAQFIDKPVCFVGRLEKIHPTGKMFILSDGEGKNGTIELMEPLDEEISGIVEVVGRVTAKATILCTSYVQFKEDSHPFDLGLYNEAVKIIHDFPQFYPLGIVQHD
FEN1, sequence (P39748 whole entry): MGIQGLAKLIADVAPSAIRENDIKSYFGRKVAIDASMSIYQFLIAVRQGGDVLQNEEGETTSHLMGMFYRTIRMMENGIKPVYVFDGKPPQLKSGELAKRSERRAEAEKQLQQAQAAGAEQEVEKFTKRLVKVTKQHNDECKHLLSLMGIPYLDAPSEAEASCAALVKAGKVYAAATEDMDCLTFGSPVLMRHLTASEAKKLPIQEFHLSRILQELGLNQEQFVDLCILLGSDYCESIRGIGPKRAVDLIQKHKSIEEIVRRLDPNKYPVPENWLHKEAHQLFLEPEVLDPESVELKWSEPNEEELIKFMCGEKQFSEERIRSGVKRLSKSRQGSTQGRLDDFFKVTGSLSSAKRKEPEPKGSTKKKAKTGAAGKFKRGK
RPA1 DBD-F, unmodified, sequence (P27694 1-180): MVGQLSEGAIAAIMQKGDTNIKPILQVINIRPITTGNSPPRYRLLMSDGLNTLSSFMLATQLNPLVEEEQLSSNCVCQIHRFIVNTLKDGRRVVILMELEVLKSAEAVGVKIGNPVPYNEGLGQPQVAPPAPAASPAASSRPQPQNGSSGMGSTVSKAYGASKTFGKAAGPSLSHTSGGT

In turn, `CCOc1ccc2cc(C3CC(c4ccc(I)cc4)=NN3C(=O)CCCC(=O)O)c(Cl)nc2c1` (stereo not shown) [TDRL-551] yielded an IC50 in series [1] of 4.46 ± 0.11 µM.

As to DA1-73, the IC50 in series [1] stood at 6.43 ± 0.29 µM.

Consider TTCACGCCTGTTAGTTAATTCACTGGCC (ssDNA) [LB.28 (28 nt)], for which the binding result in series [2] is recorded as “binds”.

For the molecule TTCACTATAACTACCTAATCTTCTGGCCGTACTGAACTACTGACA (ssDNA) [LB.45 (45 nt)], in series [3], the binding result is given as “binds”.

For the molecule TTCACGAGATTTACTTATTTCACTGCGGCT (ssDNA) [LB.30 (30 nt)], the binding result with RPA1 DBD-F, unmodified was “no binding”.

B1: 20 nt double flap (U26:D43:T49) (structured_DNA)
DNA 1: GCCCAGTCACGTCGTTGTAAAACGGGTCGTGACTGGGAAAACCCTGGCG
DNA 2: TTAGTTAATTCACTGGCCGTCGTTTTACAACGACGTGACTGGG
DNA 3: CGCCAGGGTTTTCCCAGTCACGACCA
As to B1, in the series with FEN1, the binding result is listed as “binds”.

As for TTCACGCCTGTTAGTTAATTCACTGGCCGTAC (ssDNA) [LB.32 (32 nt)], the binding result in series [2] is “binds”.
